From publication PMC5716219 come the findings set out here.

In data set [1] the target is T1, CST complex (CTC1-STN1-TEN1) (human, UniProt Q2NKJ3;Q9H668;Q86WV5 1-1217;1-368;1-123). The data set is described as follows: EMSA. Background: In EMSA bound probe runs differently from free probe, usually more slowly.
Data set [2] deals with T1, CST complex (CTC1-STN1-TEN1). Kind of data set: EMSA. The source holds these as a separate data set.
For data set [3] the target is unchanged. Kind of data set: smFRET.
The target is the same in data set [4]. Kind of data set: EMSA. The source holds these as a separate data set.
The target is the same in data set [5]. Kind of data set: EMSA. This is another data set of the same source.
Data set [6] shares this target. The data set is described as follows: EMSA. This is another data set of the same source.
Data set [7] shares this target. Kind of data set: EMSA. This is another data set of the same source.
Data set [8] has the same target. Kind of data set: smFRET. This is another data set of the same source.

T1 sequence (Q2NKJ3 whole entry, chain 1 of 3): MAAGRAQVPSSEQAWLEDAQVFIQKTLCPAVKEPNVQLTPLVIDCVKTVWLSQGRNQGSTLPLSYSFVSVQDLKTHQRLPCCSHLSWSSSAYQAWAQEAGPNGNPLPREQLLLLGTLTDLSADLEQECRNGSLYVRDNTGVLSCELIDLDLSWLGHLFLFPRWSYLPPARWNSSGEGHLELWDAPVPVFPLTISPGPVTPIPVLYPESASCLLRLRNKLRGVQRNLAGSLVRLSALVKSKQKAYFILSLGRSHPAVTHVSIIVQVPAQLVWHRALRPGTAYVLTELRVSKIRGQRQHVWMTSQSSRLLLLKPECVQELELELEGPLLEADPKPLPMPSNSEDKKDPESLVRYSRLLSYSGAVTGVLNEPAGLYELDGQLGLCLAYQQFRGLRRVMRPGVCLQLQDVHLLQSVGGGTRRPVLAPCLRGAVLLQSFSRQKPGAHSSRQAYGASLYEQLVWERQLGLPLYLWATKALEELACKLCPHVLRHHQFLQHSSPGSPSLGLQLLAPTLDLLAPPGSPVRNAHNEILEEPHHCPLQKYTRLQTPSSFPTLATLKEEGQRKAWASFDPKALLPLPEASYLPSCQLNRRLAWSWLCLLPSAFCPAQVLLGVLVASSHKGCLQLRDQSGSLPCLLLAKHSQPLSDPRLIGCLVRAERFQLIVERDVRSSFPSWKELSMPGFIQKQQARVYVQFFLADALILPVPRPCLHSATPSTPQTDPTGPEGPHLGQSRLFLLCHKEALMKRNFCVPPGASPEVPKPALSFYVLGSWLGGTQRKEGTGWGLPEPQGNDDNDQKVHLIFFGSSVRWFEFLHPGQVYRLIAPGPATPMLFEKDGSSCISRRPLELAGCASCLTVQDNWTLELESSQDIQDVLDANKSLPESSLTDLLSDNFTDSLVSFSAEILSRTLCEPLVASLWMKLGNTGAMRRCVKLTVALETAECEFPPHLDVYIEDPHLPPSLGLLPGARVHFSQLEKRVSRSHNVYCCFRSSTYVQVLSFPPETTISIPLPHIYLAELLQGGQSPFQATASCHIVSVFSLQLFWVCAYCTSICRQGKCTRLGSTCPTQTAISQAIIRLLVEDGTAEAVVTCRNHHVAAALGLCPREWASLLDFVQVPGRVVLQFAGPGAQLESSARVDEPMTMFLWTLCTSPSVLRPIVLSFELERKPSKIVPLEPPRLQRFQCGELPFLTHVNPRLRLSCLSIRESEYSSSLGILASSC
T1 sequence (Q9H668 whole entry, chain 2 of 3): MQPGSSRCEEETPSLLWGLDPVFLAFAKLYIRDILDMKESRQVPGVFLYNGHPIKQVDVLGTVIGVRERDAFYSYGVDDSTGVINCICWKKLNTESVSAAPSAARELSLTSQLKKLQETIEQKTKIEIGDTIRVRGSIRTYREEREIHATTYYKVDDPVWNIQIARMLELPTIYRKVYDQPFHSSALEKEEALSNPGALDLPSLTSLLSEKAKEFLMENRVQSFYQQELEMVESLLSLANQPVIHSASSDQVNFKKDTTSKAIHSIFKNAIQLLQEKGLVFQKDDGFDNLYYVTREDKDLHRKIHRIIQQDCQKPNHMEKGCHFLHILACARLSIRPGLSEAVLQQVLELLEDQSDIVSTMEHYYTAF
T1 sequence (Q86WV5 whole entry, chain 3 of 3): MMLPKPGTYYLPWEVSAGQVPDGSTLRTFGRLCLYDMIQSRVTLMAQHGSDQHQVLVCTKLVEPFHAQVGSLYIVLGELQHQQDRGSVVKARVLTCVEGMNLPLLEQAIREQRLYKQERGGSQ

Regarding TTAGGGTTAGGGTTAGGGTTAGGGTTAGGG (structured_DNA) [3G5 (G5 in text)], the binding result in data set [1] was “binds”.
For the molecule TTAGGGTTAGGGTTAGGGTTAGGGAGCGTA (structured_DNA) [3G46], the binding result in data set [1] is “binds”.
On the same count and under the same terms, as for TTAGGGTTAGGGTTAGGGTTAGGG (structured_DNA) [3G4], the entry is “binds”.
As to GGTTAGGGTTAGGGTTAG (ssDNA) [Tel 18], in data set [2], the binding result is reported as “binds”.

B1: smFRET 3G4-Cy3 (mixed)
DNA 1: TGGCGACGGCAGCGAGGCTTAGGGTTAGGGTTAGGGTTAGGG
DNA 2: GCCTCGCTGCCGTCGCCA
Consider B1, for which, in data set [3], the binding result is recorded as “binds”.

B2: Two-oligonucleotide junction 32/22 (mixed)
DNA 1: GCGTACTCAGTGACTCAGATCGAGCGTATCCG
DNA 2: CGATCTGAGTCACTGAGTACGC
On to B2, for which the binding result in data set [4] was “binds”.

B3: Non-Tel fold-back 18 nt 3' overhang (structured_DNA)
DNA: ACGACTGCATCTAGCTTTTTGCTAGATGCAGTCGTAGCGTATCCGTTCAGTTG
Take B3: the binding result in data set [5] is “binds”.
For CGATCTGAGTCACTGAGTACGC (ssDNA) [Non-Tel 22], the binding result in data set [6] is “no binding”.

B4: Mixed fold-back 18 nt 3' overhang (structured_DNA)
DNA: ACGACTGCATCTAGCTTTTTGCTAGATGCAGTCGTGGTTAGGGTTAGGGTTAG
Consider B4, for which the binding result in data set [7] is recorded as “binds”.
Still for that read-out and setting: as for AGCGTATCCGTTCAGTTG (ssDNA) [Non-Tel 18], the entry is “no binding”.

B5: smFRET non-telomeric junction, 18 nt overhang (mixed)
DNA 1: TGGCGACGGCAGCGAGGCAGCGTATCCGTTCAGTTG
DNA 2: GCCTCGCTGCCGTCGCCA
As for B5, in data set [8], the binding result is “binds”.
On to ACGACTGCATCTAGCTTTTTGCTAGATGCAGTCGT (structured_DNA) [Non-Tel fold-back (dsDNA), no overhang], for which, in data set [7], the binding result was “no binding”.

B6: smFRET 3G46-Cy3 (mixed)
DNA 1: TGGCGACGGCAGCGAGGCTTAGGGTTAGGGTTAGGGTTAGGGAGCGTA
DNA 2: GCCTCGCTGCCGTCGCCA
In the case of B6, the binding result in data set [3] is recorded as “binds”.
Take GGGTTAGGGTTAGGGTTAGGG (structured_DNA) [G4]: the binding result in data set [1] was “binds”.

B7: Telomere fold-back 18 nt 3' overhang (structured_DNA)
DNA: CTAACCGCATCTAGCTTTTTGCTAGATGCGGTTAGGGTTAGGGTTAGGGTTAG
Take B7: in data set [5], the binding result was “binds”.
